Laboratory results from patent US20170101466A1 (published 2017).
Positions count from the first letter of the chain named. Names and notes keep the numbering of the source.

T1: human APRIL (human, UniProt O75888 105-250, limits assumed)
T1 construct: Bought recombinant protein; also called hAPRIL
T1 sequence (looked up): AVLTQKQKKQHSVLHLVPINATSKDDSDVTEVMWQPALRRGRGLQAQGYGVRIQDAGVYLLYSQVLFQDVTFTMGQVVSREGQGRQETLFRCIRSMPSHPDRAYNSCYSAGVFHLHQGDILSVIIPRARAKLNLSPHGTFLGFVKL

T2: human TACI (R&D Systems receptor chimera) (human, UniProt O14836 2-166)
T2 construct: also called hTACI; TACI rec Human
T2 sequence (looked up): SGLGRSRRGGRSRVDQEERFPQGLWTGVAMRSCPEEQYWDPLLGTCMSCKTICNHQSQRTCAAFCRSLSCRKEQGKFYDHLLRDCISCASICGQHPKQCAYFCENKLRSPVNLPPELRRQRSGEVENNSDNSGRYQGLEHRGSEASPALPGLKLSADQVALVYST

B1: tabalumab (antibody, V domains shown)
VH: QVQLQQWGAGLLKPSETLSLTCAVYGGSFSGYYWSWIRQPPGKGLEWIGEINHSGSTNYNPSLKSRVTISVDTSKNQFSLKLSSVTAADTAVYYCARGYYDILTGYYYYFDYWGQGTLVTVSS
VL: EIVLTQSPATLSLSPGERATLSCRASQSVSRYLAWYQQKPGQAPRLLIYDASNRATGIPARFSGSGSGTDSTLTISSLEPEDFAVYYCQQRSNWPRTFGQGTKVEIKR
B2: 5B7 IgG1 F243A/V264A double mutein expressed in Pichia pastoris (antibody, V domains shown)
VH: QVQLVQSGAEVKKPGASVKVSCKASGGTFSSYAISWVRQAPGQGLEWMGGIIPIFGTANYAQKFQGRVTITADKSTSTAYMELSSLRSEDTAVYYCARVDYDILTGYYMGYFDYWGQGTLVTVSS
VL: B1 VL with E1D, L4M, R31S, S71F, R96I, K103R, V104L
notes: IgG1 F243A/V264A (EU) double mutein, alpha-2,6-sialylated, from glycoengineered Pichia pastoris; also called 5B7-DM; 5B7-DM Pichia
B3: 5B7 IgG expressed in HEK293 cells (antibody, V domains shown)
VH: B2 VH
VL: B1 VL with E1D, L4M, R31S, S71F, R96I, K103R, V104L
notes: also called 5B7 (293); 5B7-HEK293
B4: mouse TACI (R&D Systems receptor chimera) (receptor, UniProt Q9ET35 2-129, looked up, not shown: a dimerising Fc or GST)
chain: AMAFCPKDQYWDSSRKSCVSCALTCSQRSQRTCTDFCKFINCRKEQGRYYDHLLGACVSCDSTCTQHPQQCAHFCEKRPRSQANLQPELGRPQAGEVEVRSDNSGRHQGSEHGPGLRLSSDQLTLYCT
notes: also called mTACI; TACI rec Mouse
B5: mouse APRIL (ligand, UniProt Q9D777 96-241, looked up)
chain: AVLTQKHKKKHSVLHLVPVNITSKADSDVTEVMWQPVLRRGRGLEAQGDIVRVWDTGIYLLYSQVLFHDVTFTMGQVVSREGQGRRETLFRCIRSMPSDPDRAYNSCYSAGVFHLHQGDIITVKIPRANAKLSLSPHGTFLGFVKL
notes: Bought recombinant protein; also called mAPRIL
B6: 1F4 IgG expressed in HEK293 cells (antibody, V domains shown)
VH: QVTLKESGPTLVKPTQTLTLTCTFSGFSLSTSRVGVGWIRQPPGKALEWLARIDWDDDKYYSTSLKTRLTISKDTSKNQVVLTMTNMDPVDTATYYCARTHTYYDILTGYSYHVYFDYWGQGTLVTVSS
VL: QSALTQPPSASGSRGQSVSISCSGSRSDIGYYNYVSWYQQHPGKAPKLIIFDVNKRPSGVPDRFSGSKSGNTASLTVSGLQPEDEADYYCASYGGRNNLLFGGGTQLTVLG
notes: IgG from HEK293-FreeStyle cells; also called IF4
B7: 4A2 IgG expressed in HEK293 cells (antibody, V domains shown)
VH: QVQLVQSGGGVVQPGRSLRLSCAASGFTFSSYGMHWVRQAPGKGLEWVAVISHDGSNKYYADSVKGRFTISRDNSKNTLYLQMNSLRAEDTAVYYCAKDRSYYDILTGYYIPYYYGMDVWGQGTTVTVSS
VL: QAVLTQPPSASGTPGQKVTISCSGSSSDIGSNNVNWYQQFPGTAPKLLIHSNNLRPSGVPVRFSGSKSGTSASLAISGLQSEDEADYYCSAWDDSVNGVAFGGGTKLTVLG
notes: IgG from HEK293-FreeStyle cells

What was measured:
soluble human BLyS [1] = target: T3, soluble human BLyS (human, UniProt Q9Y275 134-285); assay: cell-based or functional assay
soluble human BLyS [2] = target: T3, soluble human BLyS; assay: DELFIA competition, Eu-hBLyS binding to coated BR3
Description: (§1) After 5× washing with 200 ul/well of DELFIA 1× wash solution (PE, Cat #4010-0010), plates were blocked with 3% BSA purified from trace heavy metal amounts (PE, Cat #CR84-100) for 3 hours with shaking at room temperature. Plates were washed again five times at 200 μl/well with DELFIA wash solution.
(§2) The final 3 wells across the plate served as controls (2 wells contained 2,000 pM mAbs for negative and background controls while the third contained no mAbs for positive control). […] After 18-24 hrs at 4° C., plates were read on PE EnVision plate reader with laser excitation, LANCE/DELFIA top mirror, and emission filter Eu-615 with a delay of 400 μs. Data were fit to four parameter (variable slope) inhibition dose response curve using GraphPad PRISM 5.0 software.

soluble mouse BLyS [3] = target: T4, soluble mouse BLyS (mouse, UniProt Q9WU72 127-309); assay: DELFIA competition, Eu-mBLyS binding to coated BR3
T4 construct: europium-labelled in DELFIA; also called mBLyS; mouse BAFF (BLyS)
Description: as §1, §2

soluble mouse BLyS [4] = target: T4, soluble mouse BLyS; assay: cell-based or functional assay
human APRIL [5] = target: T1, human APRIL; assay: Biacore, antibody captured, APRIL injected
Description: (§3) Recombinant protein NG (Thermo Scientific, Cat #21186) was diluted to 100 μg/ml in 10 mM Sodium Acetate pH 4.0 and then immobilized on the surface of a pre-activated Series S CM4 Biacore chip (GE, Cat #BR-1005-34) using amine coupling. […] Binding response was measured as the difference in total RU increase during 300 second APRIL injection of each individual flow cell and the reference flow cell (e.g., Flow cell 2-1).

mouse APRIL [6] = target: B5; assay: Biacore, antibody captured, APRIL injected
Description: as §3

soluble human BLyS [7] = target: T3, soluble human BLyS; assay: DELFIA competition, Eu-hBLyS binding to coated BCMA
Description: as §1, §2

soluble human BLyS [8] = target: T3, soluble human BLyS; assay: DELFIA competition, Eu-hBLyS binding to coated TACI
Description: as §1, §2

soluble mouse BLyS [9] = target: T4, soluble mouse BLyS; assay: DELFIA competition, Eu-mBLyS binding to coated BCMA
Description: as §1, §2

soluble mouse BLyS [10] = target: T4, soluble mouse BLyS; assay: DELFIA competition, Eu-mBLyS binding to coated TACI
Description: as §1, §2

soluble human BLyS [11] = target: T3, soluble human BLyS; assay: Biacore, antibody captured on chip, BLyS injected, 1:1 model, 25 C
Description: (§4) Recombinant protein NG (Thermo Scientific, Cat #21186) was diluted to 100 μg/ml in 10 mM sodium acetate pH 4.0 and then immobilized on the surface of a pre-activated Series S CM5 Biacore chip (GE, Cat #BR-1005-34) using amine coupling. […] After the dissociation period, the chip was regenerated back to baseline by injecting 10 mM glycine pH 1.5 for 120 seconds over the four flow cells. […] The entire data set was fit to a 1:1 interaction model to give kₒₙ, koff, and Kd values. The assay was run at 25° C. in 1× biacore running buffer HBS-EP+ (GE, Cat #BR-1006-69).

soluble mouse BLyS [12] = target: T4, soluble mouse BLyS; assay: as above
Description: as §4

soluble human BLyS [13] = target: T3, soluble human BLyS; assay: Biacore T100, binder captured by anti-human Fc, BLyS injected, 1:1 model
Description: (§5) A Series S CM5 Chip (GE Healthcare) was amine coupled with an anti-human Fc capturing antibody (GE Healthcare Human Fc Kit) to >10,000 RUs. Sample antibodies were diluted in 1×HBS-EP+ running buffer to 0.15 ug/mL and injected for 45 seconds at 10 uL/min. […] Biacore Evaluation software was used to fit the data to a 1:1 Binding Model.

soluble mouse BLyS [14] = target: T4, soluble mouse BLyS; assay: as above
Description: as §5

soluble human BLyS [15] = target: T3, soluble human BLyS; assay: Biacore
soluble mouse BLyS [16] = target: T4, soluble mouse BLyS; assay: Biacore
soluble human BLyS [17] = target: T3, soluble human BLyS; assay: ELISA, soluble hBLyS
soluble mouse BLyS [18] = target: T4, soluble mouse BLyS; assay: ELISA, soluble mBLyS
soluble cynomolgus BLyS = target: T5, soluble cynomolgus BLyS (cynomolgus, UniProt A0A2K5V2X4 134-285); assay: ELISA, soluble cyBLyS
T5 construct: Soluble form; also called cyBLyS; Soluble cyBLyS

soluble human BLyS [19] = target: T3, soluble human BLyS; assay: blocking of biotinylated soluble hBLyS binding to immobilized mBR3
human APRIL [20] = target: T1, human APRIL; assay: Biacore, binder captured, APRIL injected at 50 nM
Description: as §3

mouse APRIL [21] = target: B5; assay: Biacore, binder captured, APRIL injected at 50 nM
Description: as §3

[22] = target: T2, human TACI (R&D Systems receptor …); assay: Biacore, binder captured, APRIL injected at 50 nM
Description: as §3

soluble human BLyS [23] = target: T3, soluble human BLyS; assay: ELISA, soluble hBLyS; soluble hBLyS ELISA
soluble human BLyS [24] = target: T3, soluble human BLyS; assay: ELISA, soluble hBLyS; soluble hBLyS ELISA (weak, IC50 28 nM)
soluble human BLyS [25] = target: T3, soluble human BLyS; assay: blocking of biotinylated soluble hBLyS binding to immobilized mBR3; hBLyS/mBR3 receptor blocking assay; no blocking up to 100 nM

B1
IC50 hBLyS stimulated, mouse splenic B-cell proliferation (soluble human BLyS [1]): 4 ng/mL | IC50 (soluble human BLyS [2]): 0.0899 nM | IC50 (soluble mouse BLyS [3]): > 2 nM

B2
IC50 hBLyS stimulated, mouse splenic B-cell proliferation (soluble human BLyS [1]): ≤ 1 ng/mL | IC50 mBLyS stimulated, mouse splenic B-cell proliferation (soluble mouse BLyS [4]): ≤ 1 ng/mL | binding result (human APRIL [5]): no binding (tested: 50 nM) | binding result (mouse APRIL [6]): no binding (tested: 50 nM) | IC50 (soluble human BLyS [2]): 0.0377 nM | IC50 (soluble mouse BLyS [3]): 0.094 nM | IC50 (soluble human BLyS [7]): 0.0016 nM | IC50 (soluble human BLyS [8]): 0.00051 nM | IC50 (soluble mouse BLyS [9]): < 0.0003 nM | IC50 (soluble mouse BLyS [10]): < 0.0003 nM | Kd (soluble human BLyS [11]): 0.179 nM | koff (soluble human BLyS [11]): 3.5e-05 s⁻¹ | kon (soluble human BLyS [11]): 190000 M⁻¹ s⁻¹ | Kd (soluble mouse BLyS [12]): 0.065 nM | koff (soluble mouse BLyS [12]): 4e-05 s⁻¹ | kon (soluble mouse BLyS [12]): 620000 M⁻¹ s⁻¹ | Kd (soluble human BLyS [13]): 0.068 nM | koff (soluble human BLyS [13]): 4.6e-05 s⁻¹ | kon (soluble human BLyS [13]): 678000 M⁻¹ s⁻¹ | Kd (soluble mouse BLyS [14]): 0.037 nM | koff (soluble mouse BLyS [14]): 0.000102 s⁻¹ | kon (soluble mouse BLyS [14]): 2.73e+06 M⁻¹ s⁻¹

B3
Kd (soluble human BLyS [15]): 0.4 nM | Kd (soluble mouse BLyS [16]): 0.0145 nM | IC50 (soluble human BLyS [17]): 0.1 nM | IC50 (soluble mouse BLyS [18]): 0.16 nM | IC50 (soluble cynomolgus BLyS): 0.08 nM | IC50 hBLyS stimulated, mouse splenic B-cell proliferation (soluble human BLyS [1]): 4 ng/mL | IC50 mBLyS stimulated, mouse splenic B-cell proliferation (soluble mouse BLyS [4]): 3 ng/mL | binding result (human APRIL [5]): no binding (tested: 50 nM) | binding result (mouse APRIL [6]): no binding (tested: 50 nM) | IC50 (soluble human BLyS [2]): 0.0526 nM | IC50 (soluble mouse BLyS [3]): 0.107 nM | IC50 (soluble human BLyS [7]): 0.0018 nM | IC50 (soluble human BLyS [8]): < 0.0003 nM | IC50 (soluble mouse BLyS [9]): 0.0013 nM | IC50 (soluble mouse BLyS [10]): < 0.0003 nM | IC50 (soluble human BLyS [19]): 0.43 nM | Kd (soluble human BLyS [11]): 0.224 nM | koff (soluble human BLyS [11]): 4.2e-05 s⁻¹ | kon (soluble human BLyS [11]): 190000 M⁻¹ s⁻¹ | Kd (soluble mouse BLyS [12]): 0.062 nM | koff (soluble mouse BLyS [12]): 4.2e-05 s⁻¹ | kon (soluble mouse BLyS [12]): 670000 M⁻¹ s⁻¹

B4
binding result (human APRIL [20]): binds | binding result (mouse APRIL [21]): binds | Kd (soluble human BLyS [13]): 0.602 nM | koff (soluble human BLyS [13]): 0.000239 s⁻¹ | kon (soluble human BLyS [13]): 397000 M⁻¹ s⁻¹ | Kd (soluble mouse BLyS [14]): 0.177 nM | koff (soluble mouse BLyS [14]): 0.000121 s⁻¹ | kon (soluble mouse BLyS [14]): 682000 M⁻¹ s⁻¹

B5
binding result [22]: binds

B6
IC50 (soluble cynomolgus BLyS): 0.11 nM | IC50 (soluble human BLyS [23]): 2.87 nM

B7
Kd (soluble mouse BLyS [16]): 0.0486 nM | IC50 (soluble mouse BLyS [18]): 0.47 nM | IC50 (soluble cynomolgus BLyS): 1.46 nM | IC50 (soluble human BLyS [24]): 28 nM | IC50 (soluble human BLyS [25]): > 100 nM
